Assay results reported in PMC5765355, “Phosphorylation of Pnut in the Early Stages of Drosophila Embryo Development Affects Association of the Septin Complex with the Membrane and Is Important for Viability” (G3: Genes|Genomes|Genetics, 2017).

T1: His-tagged wild-type Pnut (Drosophila melanogaster, UniProt P40797 1-539)
T1 construct: Septin Pnut (Peanut), Drosophila melanogaster, wild type; homolog of human SEPT7; also called His–Pnut; Pnut-WT; source: baculovirus expression system, expressed together with Sep1 and Sep2; assembled complex purified
T1 sequence (looked up): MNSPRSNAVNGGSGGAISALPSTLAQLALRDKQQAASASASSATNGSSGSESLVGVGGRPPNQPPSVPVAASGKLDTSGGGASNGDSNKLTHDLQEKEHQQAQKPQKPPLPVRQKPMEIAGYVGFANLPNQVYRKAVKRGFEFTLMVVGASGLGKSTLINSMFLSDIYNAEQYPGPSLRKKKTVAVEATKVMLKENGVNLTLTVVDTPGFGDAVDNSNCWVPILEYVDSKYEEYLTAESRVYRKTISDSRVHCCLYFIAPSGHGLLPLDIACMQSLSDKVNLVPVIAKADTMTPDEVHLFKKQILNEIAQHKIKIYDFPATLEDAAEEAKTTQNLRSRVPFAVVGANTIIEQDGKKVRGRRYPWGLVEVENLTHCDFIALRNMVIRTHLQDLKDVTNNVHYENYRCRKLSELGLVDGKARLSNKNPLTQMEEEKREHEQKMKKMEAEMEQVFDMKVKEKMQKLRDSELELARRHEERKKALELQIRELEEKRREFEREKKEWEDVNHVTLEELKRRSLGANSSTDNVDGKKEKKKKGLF

T2: His-tagged nonphosphorylatable Pnut-T509A/S517A (Drosophila melanogaster, UniProt P40797 1-539, T509A | S517A)
T2 construct: Septin Pnut (Peanut), Drosophila melanogaster, with T509A and S517A; source: baculovirus expression system, expressed together with Sep1 and Sep2; assembled complex purified
T2 sequence (looked up): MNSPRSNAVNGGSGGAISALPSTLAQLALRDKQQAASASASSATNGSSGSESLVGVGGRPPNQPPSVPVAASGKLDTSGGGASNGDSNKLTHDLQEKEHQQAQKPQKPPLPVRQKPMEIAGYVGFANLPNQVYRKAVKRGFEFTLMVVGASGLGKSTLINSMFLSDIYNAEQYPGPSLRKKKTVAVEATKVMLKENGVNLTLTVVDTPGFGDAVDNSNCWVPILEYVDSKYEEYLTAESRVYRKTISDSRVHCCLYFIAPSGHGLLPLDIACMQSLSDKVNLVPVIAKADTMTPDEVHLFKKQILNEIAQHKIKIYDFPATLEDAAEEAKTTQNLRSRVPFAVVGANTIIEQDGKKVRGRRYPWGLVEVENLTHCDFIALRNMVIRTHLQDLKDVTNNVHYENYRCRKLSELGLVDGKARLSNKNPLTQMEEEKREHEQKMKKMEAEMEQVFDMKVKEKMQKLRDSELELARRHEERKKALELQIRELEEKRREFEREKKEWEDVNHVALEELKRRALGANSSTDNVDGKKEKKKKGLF

T3: His-tagged phospho-mimetic Pnut-T509E/S517E (Drosophila melanogaster, UniProt P40797 1-539, T509E | S517E)
T3 construct: Septin Pnut (Peanut), Drosophila melanogaster, with T509E and S517E; also called T509E/S517E mutant; source: baculovirus expression system, expressed together with Sep1 and Sep2; assembled complex purified
T3 sequence (looked up): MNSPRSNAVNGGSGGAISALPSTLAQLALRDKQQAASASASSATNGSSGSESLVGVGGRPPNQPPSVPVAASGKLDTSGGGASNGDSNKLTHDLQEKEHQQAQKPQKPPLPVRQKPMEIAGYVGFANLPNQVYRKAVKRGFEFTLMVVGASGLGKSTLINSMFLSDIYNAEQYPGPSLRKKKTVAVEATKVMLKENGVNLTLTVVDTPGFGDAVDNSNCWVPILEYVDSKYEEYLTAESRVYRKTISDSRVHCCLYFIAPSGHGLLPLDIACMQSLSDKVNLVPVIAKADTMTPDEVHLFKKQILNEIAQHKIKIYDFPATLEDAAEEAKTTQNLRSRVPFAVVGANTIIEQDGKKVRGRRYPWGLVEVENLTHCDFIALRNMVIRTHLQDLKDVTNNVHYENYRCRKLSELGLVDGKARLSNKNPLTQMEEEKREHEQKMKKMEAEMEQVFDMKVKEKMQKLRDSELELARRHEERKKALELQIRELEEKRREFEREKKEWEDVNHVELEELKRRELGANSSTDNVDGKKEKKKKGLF


How the values were obtained:
Details in all cases: both partners purified
[1] = target: T1, His-tagged wild-type Pnut; test: pull-down; 2 µg purified recombinant septin complex diluted in 200 µl pull-down buffer (25 mM HEPES pH 7.6, 2 mM MgCl2, 10 mM imidazole) with 300 mM KCl; His-Pnut held on HisPur Ni-NTA resin, 1 hr at 22°; eluted with 250 mM imidazole; silver-stained SDS-PAGE; Sep1 given as a percentage of the Pnut amount
[2] = target: T2, His-tagged nonphosphorylatable …; test: as above
[3] = target: T3, His-tagged phospho-mimetic …; test: pull-down; 2 µg purified recombinant septin complex diluted in 200 µl pull-down buffer (25 mM HEPES pH 7.6, 2 mM MgCl2, 10 mM imidazole) with 50 mM KCl; His-Pnut held on HisPur Ni-NTA resin, 1 hr at 22°; eluted with 250 mM imidazole; silver-stained SDS-PAGE; Sep1 given as a percentage of the Pnut amount
[4] = target: T3, His-tagged phospho-mimetic …; test: pull-down; 2 µg purified recombinant septin complex diluted in 200 µl pull-down buffer (25 mM HEPES pH 7.6, 2 mM MgCl2, 10 mM imidazole) with 300 mM KCl; His-Pnut held on HisPur Ni-NTA resin, 1 hr at 22°; eluted with 250 mM imidazole; silver-stained SDS-PAGE; Sep1 given as a percentage of the Pnut amount
[5] = target: T1, His-tagged wild-type Pnut; test: pull-down; 2 µg purified recombinant septin complex diluted in 200 µl pull-down buffer (25 mM HEPES pH 7.6, 2 mM MgCl2, 10 mM imidazole) with 50 mM KCl; His-Pnut held on HisPur Ni-NTA resin, 1 hr at 22°; eluted with 250 mM imidazole; silver-stained SDS-PAGE; Sep1 given as a percentage of the Pnut amount
[6] = target: T2, His-tagged nonphosphorylatable …; test: as above

Row | Binder | binding result [1] | binding result [2] | binding result [3] | amount of Sep1 as a percentage of the Pnut amount [1] [%] | amount of Sep1 as a percentage of the Pnut amount [2] [%] | amount of Sep1 as a percentage of the Pnut amount [4] [%] | amount of Sep1 as a percentage of the Pnut amount [5] [%] | amount of Sep1 as a percentage of the Pnut amount [6] [%] | amount of Sep1 as a percentage of the Pnut amount [3] [%]
1 | Sep2 (recombinant) (natural protein, Drosophila melanogaster, UniProt P54359 1-419, looked up, Septin Sep2, Drosophila melanogaster; homolog of human SEPT6; source: baculovirus expression system, expressed together with His-tagged Pnut and Sep1; assembled complex purified) MSVEVDFVDKKEVHLRTLKQSGHVGFDSLPDQLVNKSVQNGFVFNVMCIGETGLGKSTLMDTLFNTSFESTPSPHTLPSVKLKAHTYELQESNVRLKLTICDTVGYGDQINKDDSFKAVVDYIDAQFENYLQEELKIKRSLVTCHDSRIHICLYFICPTGHGLKSLDLVCMKKLDSKVNIIPVIAKADTISKVELQRFKAKIIQELNANGVHIYQFPTDDETVAETNTSMNSHIPFAVVGSTEFIKVGNKLIRARQYPWGTVQVENETHCDFVKLREMLIRTNMEDMREKTHTRHYELYRQKRLEQMGFSDVDSDNKPISFQQTFEAKRSNHLAELQSKEEEVRQMFVQRVKEKEAELKESEKDLHAKFEKLKRDHAEEKRKLEESRKALEEDYLDFQRRKQQLATAHHTLTLGKSKKK | binds | binds | binds | – | – | – | – | – | –
2 | Sep1 (recombinant) (natural protein, Drosophila melanogaster, UniProt P42207 1-361, looked up, Septin Sep1, Drosophila melanogaster; homolog of human SEPT2; source: baculovirus expression system, expressed together with His-tagged Pnut and Sep2; assembled complex purified) MADTKGFSSIETPGYVGFANLPNQVHRKSVKKGFEFTLMVVGESGLGKSTLVNSLFLTDLYPERIIPDAIEKQKQTVKLEASTVEIEERGVKLRLTVVDTPGFGDAIDNSNSFGAILEYIDEQYERFLRDESGLNRRNIVDNRIHCCFYFISPFGHGLKPLDVEFMKKLHSKVNIVPVIAKADCLTKKEILRLKCRIMQEIESHGIKIYPLPDCDSDEDEDYKEQVKQLKEAVPFAVCGANTLLEVKGKKVRGRLYPWGVVEVENPDHCDFIKLRTMLITHMQDLQEVTQEVHYENYRSDRLAKGIKGKENGVKAERDSSSQVVSNSVLGEKDRILQEKEAELRRMQEMLAQMQARMQAQQ | – | – | – | 62.3 | 62 | 31 | 34 | 17 | 1
